# From patent publication US20210155689A1 (SHANGHAI PHARMAEXPLORER, published 2021)
# Where a chain is given by its changes, count along the chain named.
# T1: monkey LAG-3 (full length, on the cell surface) (monkey, UniProt P18627 24-525 (human entry))
# T1 construct: also called HEK293-cLAG-3; monkey LAG-3 protein on the cell surface
# T1 chain: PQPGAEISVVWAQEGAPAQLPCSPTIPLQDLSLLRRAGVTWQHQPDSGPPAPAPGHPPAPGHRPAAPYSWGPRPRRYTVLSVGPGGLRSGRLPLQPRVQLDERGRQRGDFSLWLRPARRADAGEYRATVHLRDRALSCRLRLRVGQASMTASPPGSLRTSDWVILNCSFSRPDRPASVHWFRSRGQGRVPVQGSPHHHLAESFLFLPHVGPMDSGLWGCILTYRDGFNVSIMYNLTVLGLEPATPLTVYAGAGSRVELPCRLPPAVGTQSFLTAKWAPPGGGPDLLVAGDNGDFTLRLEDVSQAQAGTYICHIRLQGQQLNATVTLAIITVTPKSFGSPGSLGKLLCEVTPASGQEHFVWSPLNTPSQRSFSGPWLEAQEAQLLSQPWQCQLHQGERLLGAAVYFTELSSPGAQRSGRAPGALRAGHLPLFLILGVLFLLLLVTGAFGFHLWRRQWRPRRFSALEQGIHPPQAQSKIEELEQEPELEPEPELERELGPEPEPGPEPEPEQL
# T2: human LAG-3 protein with hFc tag (hLAG-3-hFc protein) (human, UniProt P18627 23-450)
# T2 construct: also called immunogen 1; LAG-3 extracellular domain protein; not shown: human IgG Fc fragment (hFc) of the pCpC vector
# T2 sequence: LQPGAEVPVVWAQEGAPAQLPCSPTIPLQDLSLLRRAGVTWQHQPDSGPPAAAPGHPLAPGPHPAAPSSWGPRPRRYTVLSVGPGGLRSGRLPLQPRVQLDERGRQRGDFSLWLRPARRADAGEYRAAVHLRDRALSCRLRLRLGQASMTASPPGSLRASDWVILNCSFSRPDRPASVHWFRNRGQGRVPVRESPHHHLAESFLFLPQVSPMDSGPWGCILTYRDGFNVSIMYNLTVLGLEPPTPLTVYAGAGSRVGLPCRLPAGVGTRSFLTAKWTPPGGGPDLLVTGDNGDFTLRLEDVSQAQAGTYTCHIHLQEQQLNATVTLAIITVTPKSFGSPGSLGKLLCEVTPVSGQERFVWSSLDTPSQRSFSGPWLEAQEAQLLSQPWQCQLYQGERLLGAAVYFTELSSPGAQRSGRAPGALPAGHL
# T3: hFc tagged monkey LAG-3 protein (cLAG-3-hFc protein) (monkey; human)
# T3 construct: Made in HEK293 cells; also called monkey LAG-3 extracellular domain protein; not shown: human IgG Fc fragment (hFc) of the pCpC vector
# T3 chain: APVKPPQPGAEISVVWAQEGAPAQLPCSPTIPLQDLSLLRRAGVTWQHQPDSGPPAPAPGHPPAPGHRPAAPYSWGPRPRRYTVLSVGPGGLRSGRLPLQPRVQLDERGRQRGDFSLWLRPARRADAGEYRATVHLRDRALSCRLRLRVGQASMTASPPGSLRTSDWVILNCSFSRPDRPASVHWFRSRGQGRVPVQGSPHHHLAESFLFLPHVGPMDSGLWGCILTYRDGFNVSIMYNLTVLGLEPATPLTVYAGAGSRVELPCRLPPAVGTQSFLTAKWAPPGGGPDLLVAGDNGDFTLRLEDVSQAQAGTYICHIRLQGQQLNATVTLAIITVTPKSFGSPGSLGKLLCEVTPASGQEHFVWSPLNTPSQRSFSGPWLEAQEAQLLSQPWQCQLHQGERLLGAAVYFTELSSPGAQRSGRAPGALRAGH
# B1: 405B8H3 (mouse antibody purified from hybridoma) (antibody, V domains shown)
# VH: QVQLQQSGAELVRPGASVTLSCKASGYTFTDYEMHWVKQTPVHGLEWIGATDPETGNSAYNQKFKGKAIMTADKSSSTAYMELRSLTSEDSAVYYCISTGWNDWGQGTSLTVSS
# VL: DIKMTQSPSSMYASLGERVTITCKASQDINSYLSWFQQKPGKSPKTLIYRADRLLDGVPSRFSGSGSGQDYSLTISSLEYGDMGIYYCLQYDEFPYTFGGGTKLEIK
# notes: also called mAb103-405B8H3; 405B81-13
# B2: 105F1E10 (LAG-3 mouse-human chimeric antibody) (antibody, V domains shown)
# VH: EVQLQQSGPELVKPGASVKMSCRASGYTFTDFKMHWMKQSHGKSLEWIGYIAPNNGGTAYNQKFRGKATLTVNESSNTAYMELRSLTSEDSAVYYCVDWDDVDYWGQGTTLTVSS
# VL: B1 VL with P40S, D52N, L55V, G81E, D92V, Y96L, G100A, I106L
# B3: 105F1E10 (mouse antibody purified from hybridoma) (antibody, V domains shown)
# VH: B2 VH
# VL: B1 VL with P40S, D52N, L55V, G81E, D92V, Y96L, G100A, I106L
# notes: also called mAb009-105F1E10
# B4: 405B8H3 (LAG-3 mouse-human chimeric antibody) (antibody, V domains shown)
# VH: B1 VH
# VL: B1 VL
# notes: also called mouse-human chimeric antibody 405B8H3
# B5: 409D4E10 (LAG-3 mouse-human chimeric antibody) (antibody, V domains shown)
# VH: B1 VH with Y27N, G56D, S58T, M70L, A72T, S98T, T99S
# VL: B1 VL with D52N, G81E, D92N
# B6: 409D4E10 (mouse antibody purified from hybridoma) (antibody, V domains shown)
# VH: B1 VH with Y27N, G56D, S58T, M70L, A72T, S98T, T99S
# VL: B1 VL with D52N, G81E, D92N
# notes: also called mAb112-409D4E10
# B7: 409B11E12 (LAG-3 mouse-human chimeric antibody) (antibody, V domains shown)
# VH: B1 VH with P41T, G56S, N57Y, M70L, S98A
# VL: B1 VL with I2L, D52N, G81E
# B8: 409B11E12 (mouse antibody purified from hybridoma) (antibody, V domains shown)
# VH: B1 VH with P41T, G56S, N57Y, M70L, S98A
# VL: B1 VL with I2L, D52N, G81E
# notes: also called mAb104-409B11E12
# B9: 556F6B8 (mouse antibody purified from hybridoma) (antibody, V domains shown)
# VH: RVQLKQSGPGLVQPSQSLSITCTVSGFSLIKYGVHWVRQSPGEGLEWLGVIWRGGITDYNAAFMSRLSITKDNSKSQVFFKMNSLQADDTAIYYCAKWDGPLAMDYWGQGTSVTVSS
# VL: DIVMTQSHKFLSTSVGDRVSITCKASQDVGTTVAWYQQKPGQSPKLLIYWASTRHTGVPDRFTGSGSGTDFTLTISNVQSEDLADYFCQQYSSYPYTFGGGTKLEIK
# notes: also called mAb123-556F6B8
# B10: 556F6B8 (LAG-3 mouse-human chimeric antibody) (antibody, V domains shown)
# VH: B9 VH
# VL: B9 VL
# notes: also called 556F8B8
# Tests used:
# [1] = molecular target: T1, monkey LAG-3 (full length, on the cell …); assay: FACS, HEK293-cLAG-3; 0.000 nM
# Text: (§1) The pIRES plasmid with the monkey-derived full-length gene was transfected into the HEK293 cell line to construct a HEK293 stable cell line containing monkey LAG-3 (herein referred to as HEK293-cLAG-3 stable cell line). The HEK293-hLAG-3 stable cell line and HEK293-cLAG-3 stable cell line were expanded in a T-75 cell culture flask to a 90% confluence. The medium was aspirated, and the cells were washed with HBSS (Hanks' Balanced Salt Solution) 1-2 times, then treated with a enzyme-free cell dissociation fluid (Versene solution: Life technology) and the cells were collected. The cells were washed with HBSS buffer for 1-2 times. After counted, the cells were diluted with HBSS to 1-2×10⁶ cells per ml, added with 1% goat serum blocking solution, incubated on ice for 20-30 minutes, and then washed with HBSS for 2 times by centrifugation. The collected cells were suspended in the FACS buffer (HBSS+1% BSA) to 2×10⁶ cells/ml, added as 100 microliters per well to a 96-well FACS reaction plate, added with 100 microliters per well of the antibody sample to be tested, incubated on ice for 1-2 hours. The plate was washed twice with the FACS buffer by centrifugation, added with 100 microliters of fluorescent (Alexa 488)-labeled secondary antibodies per well, and incubated on ice for 0.5-1.0 hours. The plate was washed 2-3 times with FACS buffer by centrifugation, added with 100 μl fixative solution (4% Paraformaldehyde) per well to suspend the cells. 5-10 minutes later, it was washed 1-2 times with FACS buffer by centrifugation. The cells were suspended with 100 microliters of FACS buffer, FACS (FACSCalibur, BD) was used for detection and the results were analyzed.
# [2] = molecular target: T1, monkey LAG-3 (full length, on the cell …); assay: FACS, HEK293-cLAG-3; 0.064 nM
# Text: as §1
# [3] = molecular target: T1, monkey LAG-3 (full length, on the cell …); assay: FACS, HEK293-cLAG-3; 0.320 nM
# Text: as §1
# [4] = molecular target: T2, human LAG-3 protein with hFc tag …; assay: ELISA, hLAG-3-hFc coated; 0.0007 nM
# Method: (§2) The plate was sealed with plastic film and incubated overnight at 4° C. The plate was washed 2 times with the plate washing solution (PBS+0.01% Tween20) on the next day, and added with the blocking solution (PBS+0.01% Tween20+1% BSA) and blocked at room temperature for 1-2 hours. The blocking solution was poured out, and the plate was added with 50-100 μl of the antibody sample to be tested to each well, incubated at 37° C. for 1-2 hours, and washed 2-3 times with a plate washing solution (PBS+0.01% Tween20). HRP (horseradish peroxidase) labeled secondary antibody was added, and the plate was incubated at 37° C. for 1-2 hours, and washed 2-3 times with a plate washing solution (PBS+0.01% Tween20). 100 μl of TMB substrate was added to each well. After incubated at room temperature for 15-30 minutes, the plate was added with 100 μl of stop solution (1.0N HCl) to each well.
# [5] = molecular target: T2, human LAG-3 protein with hFc tag …; assay: ELISA, hLAG-3-hFc coated; 0.0067 nM
# Method: as §2
# [6] = molecular target: T3, hFc tagged monkey LAG-3 protein …; assay: ELISA, cLAG-3-hFc coated; 0.0001 nM
# Method: as §2
Binder,Mean fluorescence intensity [1] [MFI],Mean fluorescence intensity [2] [MFI],Mean fluorescence intensity [3] [MFI],OD450 [4] [OD450],OD450 [5] [OD450],OD450 [6] [OD450]
B1,3.9,4.9,8,,,
B2,,,,0.2,0.3,0.14
B3,3.9,4.5,6.6,,,
B4,,,,0.19,0.57,0.15
B5,,,,0.16,0.63,0.19
B6,3,4.7,11.5,,,
B7,,,,0.2,0.47,0.14
B8,3,4.2,8,,,
B9,3.4,5.1,9.8,,,
B10,,,,0.17,0.38,0.18
